The supplement of paper PMC10567573

B1: WDFY1 (parent)
chain: FWNIKQMWDTKTLGLRQHHCRKCG
B2: MYBL2 (parent)
chain: FSPSQFLNFWNKQDTLELESPSLT

Variants of: B1
Assay: protein stability index of a GFP-peptide fusion (GPS, HEK-293T) (PSI 1-6); higher = more stable
Conditions: c terminus: a fixed tail appended
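Also: lentivirally expressed fusions sorted by FACS into six bins by GFP to DsRed ratio, PSI derived from sequencing read proportions per bin multiplied by bin number.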

Protein stability index of substitutions, site by site:
Q6: M 2.06
H18: L 2.31
L13: T 1.95, H 2.22, V 2.15
C23: Y 2.04, K 2.71
I4: M 2.35
F1: S 2.46
W8: G 2.81
H19: D 2.21
K5: S 1.72
R16: D 2.84
M7: S 2.39
G24: H 2.13
T10: H 2.13

Variants of: B2
Assay: as above
Conditions: c terminus: a fixed tail appended

Protein stability index, by site and new letter:
E19: N 3.12, F 2.58, A 2.63, W 2.64, I 2.94, H 2.88, D 3.09, P 2.86, V 2.8, C 3.63, S 2.07, R 2.75, Y 2.11, T 2.39, L 4.26, G 1.66
F6: N 2.21, S 2.31, A 2.02, Q 3.08, L 4.19, K 2.86, E 4, W 2.7, D 2.59, R 3.66, T 1.5, V 2.39, C 1.61, H 2.6, P 3
S20: Q 3.9, E 1.23, G 2.84, M 3.66, W 2.37, V 2.31, T 2.83, L 1.89, D 2.62, K 2.35, C 2.08, R 2.26, I 2.75, F 2.57, P 1.65
F9: W 2.84, D 2.98, N 2.29, V 3.09, G 1.6, I 3.65, T 1.96, M 1.63, E 2.43, P 2.48, A 1.87, C 2.17, Y 1.74, S 1.83, K 2.44, R 2.13, H 2.43, Q 2.15, L 2.98
N11: T 2.79, L 3.89, Y 3.26, F 2.14, S 2.99, R 2.48, G 2.56, I 2.5, C 4.67, E 2.73, A 1.4, Q 2.77, D 3.14, P 2.51
Q5: T 3.6, S 2.83, N 2.27, R 2.6, W 2.86, K 2.44, D 2.75, P 3.49, F 2.31, C 3.02, M 2.95, Y 2.29, H 2.79, G 3.07, A 2.55
P21: W 3.86, I 3.74, Q 2.56, S 2.09, Y 2.69, R 2.36, M 3.16, F 3.56, G 3.5, N 3.41, E 2.64, D 2.2, K 3.01, T 2.36, V 2.53, L 3.37, C 2.77
L18: Q 3.72, G 2.58, I 2.61, H 1.77, M 2.88, D 2.79, R 2.95, P 2.1, C 2.55, S 1.84, N 1.98, F 3.19, E 3.1, W 5.25, Y 3.16, V 3.28, T 3.04, K 2.98
L23: I 4.19, M 2.41, F 3.38, C 2.71, N 2.65, D 3.49, E 2.26, H 2.79, A 2.08, S 2.13, V 2.91, G 2.27, R 2.97
S4: Y 2.98, T 3.36, Q 4.58, V 2.57, W 2.35
W10: N 3.38, R 2.62, I 2.28, S 2.91, Y 2.63, D 3.87, H 2.77, G 2.93, L 2.06, C 2.5, E 3.51, P 3.45, F 2.18, A 2.48, M 2.17, K 2.8, Q 3.5, T 2.98, V 1.89
E17: Y 2.41, I 3.94, Q 3.02, L 3.9, A 1.07, R 2.45, F 1.84, M 3.58, K 2.48, N 2.33, W 2.71, V 3.59, T 2.41, S 3.58, P 1.74, H 2.37, D 3.02, C 2.41
S22: H 2.56, P 1.89, K 3.1, F 3.27, C 4.69, T 2.82, V 2.95, W 3, Y 2.61, I 2.72, N 3.17
N8: D 2.08, S 3.58, Q 2.17, V 3.44, R 2.93, P 2.91, K 2.74, A 3.07, W 2.9, L 3.22, Y 2.06, T 3.92, F 4.01, I 4.12, M 3.6
D14: K 4.25, L 2.6, Q 2.89, Y 3.5, H 2.39, C 4.04, S 1.31, V 3.22, A 2.94, R 4.08, P 2.98, M 2.63, G 2.94, F 3.92
L7: P 2.25, R 2.38, M 3.04, G 2.59, C 3.24, W 2.38, N 3.1, I 3.39, K 2.97, F 2.6, Y 2.76, H 3.34, T 3.42, V 3.57, Q 2.92, A 3.29
K12: I 3.21, M 3.42, P 3.55, N 2.84, H 2.4, S 2.02, Q 1.93, Y 3.78, E 2.25, A 2.9, R 2.52, F 2.97, G 4.46, V 4.37, D 3.15, T 2.59
L16: A 3.1, P 2.29, Y 3.49, S 2.5, R 4.02, I 2.58, G 4.14, M 2.56, D 3.85, H 3.68, C 2.68, F 3.19, V 2.19, E 1.26, K 2.75, Q 3.33, T 1.5
T15: S 4.29, K 2.68, A 3.05, E 2.4, W 3.33, Q 1.82, R 2.54, L 3.22, I 2.92, M 3.12, C 2.54, N 3, H 3.8, P 2.48, Y 1.38, G 3.51, F 2.34, D 2.09
T24: N 2.1, S 2.36, M 2.65, E 2.34, W 2.86, A 3.17, P 3.08, I 2.2, R 3.41, K 3.62, L 2.52, C 3.38, Y 2.73
Q13: M 3.43, Y 3.56, W 3.25, A 3.54, D 3.51, F 2.17, V 2.94, P 2.06, T 2.4, N 3.24, S 3.98, I 4.44, R 1.21, H 3.41
